Assay results from article PMC4381924.
“And” between values parts separate entries of the source, which are not always exact repeats. Equal entries are not always repeated. Each block holds one substance with its values, some of them ahead of it.

How the values were obtained:
IGF1R ECD-TM-fp (human) [1] = molecular target: IGF1R ECD-TM-fp (human)
IGF1R ECD-TM-fp (human) [2] = test: FRET or BRET; spectrally resolved two-photon FRET on living, serum-starved CHO cells; mTurquoise donor, EYFP acceptor; FRET efficiency per membrane pixel; with IGF1
IGF1R ECD-TM-fp (human) [3] = test: FRET or BRET; quantitative imaging FRET (QI-FRET) in plasma-membrane vesicles derived from transfected CHO cells; intrinsic FRET corrected for proximity FRET and donor-to-acceptor ratio; with IGF1
[4] = molecular target: IGF1R ECD-TM-fp H905C (human); test: FRET or BRET; quantitative imaging FRET (QI-FRET) in plasma-membrane vesicles derived from transiently co-transfected CHO cells; EYFP donor, mCherry acceptor; confocal microscopy at room temperature; intrinsic FRET corrected for proximity FRET and donor-to-acceptor ratio; without IGF1
[5] = molecular target: IGF1R ECDΔL1-TM-fp (human); test: as above
IGF1R TM-fp (human) = test: FRET or BRET; spectrally resolved two-photon FRET on living, serum-starved CHO cells; mTurquoise donor, EYFP acceptor; FRET efficiency per membrane pixel; without IGF1
[6] = molecular target: IGF1R TM-icd H905C (human); test: cross-linking; disulfide bond between introduced cysteines; HEK293 cells incubated with or without IGF1, lysed in RIPA buffer with 10 mM iodoacetamide; non-reducing against reducing SDS-PAGE, anti-IGF1Rβ Western blot

IGF1R ECD-TM-fp, sequence (P08069 741-935): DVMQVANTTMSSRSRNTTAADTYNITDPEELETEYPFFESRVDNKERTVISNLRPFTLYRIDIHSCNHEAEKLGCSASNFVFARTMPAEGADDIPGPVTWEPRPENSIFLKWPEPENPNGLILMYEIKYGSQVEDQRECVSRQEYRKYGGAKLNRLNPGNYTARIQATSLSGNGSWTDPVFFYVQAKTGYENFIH
IGF1, sequence (P05019 49-118): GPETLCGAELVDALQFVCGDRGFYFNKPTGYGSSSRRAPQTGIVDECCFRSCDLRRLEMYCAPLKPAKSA

- FRET efficiency between co-transfected donor- and acceptor-tagged IGF1R ECD-TM-fp in membranes of live CHO cells, with against without ligand (IGF1R ECD-TM-fp (human) [1]): 2 fold
Substance: IGF1 (from UniProt P05019 49-118) (ligand)

- FRET efficiency per membrane pixel (peak of a normal distribution) (IGF1R ECD-TM-fp (human) [2]): 0.34
- intrinsic FRET efficiency (y intercept of a horizontal line) (IGF1R ECD-TM-fp (human) [3]): 0.34
Substance: IGF1R ECD-TM-fp (domain or fragment)

- intrinsic FRET efficiency (y intercept of a horizontal line) [4]: 0.38
Substance: IGF1R ECD-TM-fp H905C (domain or fragment)

- intrinsic FRET efficiency (y intercept of a horizontal line) [5]: 0.36
Substance: IGF1R ECDΔL1-TM-fp (domain or fragment)

- FRET efficiency per membrane pixel (peak of a two state distribution) (IGF1R TM-fp (human)): 0.37 and 0.33
Substance: IGF1R TM-fp (domain or fragment)

- stoichiometry N [6]: 2
Substance: IGF1R TM-icd H905C (domain or fragment)
